Measured values taken from US7947279B2, “Peptide having hydrolase activity” (The Trustees of Columbia University in the City of New York, priority 2005, dated 2011).
Entries after “also recorded” stand apart in the source; their conditions may differ.

Key:
mice (WT and APP/PS1) = assay: Contextual and cued fear conditioning; assay type: in vivo, mouse; conditions: for contextual freezing of APP/PS1 mice 1 day after training: 0.02-0.04 g/kg i.p. 4 hrs before training, 3-5 month-old
Experimental: Behavioral Studies: Fear conditioning was performed in a conditioning chamber as previously described (Bourtchuladze et al., 1994; Gong et al., 2004). For contextual and cued fear conditioning mice were placed in the conditioning chamber for 2 min before the onset of a discrete tone (CS) (a 30 sec sound at 2800 Hz and 85 dB). In the last 2 sec of the CS, mice were given a foot shock (US) of 0.50 mA for 2 sec through the bars of the floor. After the CS/US pairing, the mice were left in the conditioning chamber for another 30 sec and then placed back in their home cages. Freezing behavior, defined as the absence of all movement except for that necessitated by breathing, was scored using Freezeview software. To evaluate contextual fear learning, freezing was measured for 5 min in the chamber in which the mice were trained 24 hrs after training. To evaluate cued fear conditioning, following contextual testing, the mice were placed in a novel context (triangular cage with smooth flat floor and with vanilla odorant) for 2 min (pre-CS test), after which they were exposed to the CS for 3 min (CS test), and freezing was measured. To evaluate the contextual fear over time, mice were placed for 5 min in the chamber in which the mice were trained 7- 14- 21-days after training. Sensory perception of the shock was determined through threshold assessment. Each animal was placed individually into the conditioning chamber. […] Animal behavior was evaluated for the first visible response to the shock (flinch), the first extreme motor response (run/jump), and the first vocalized distress (scream). Threshold to flinching, jumping, and screaming was quantified for each animal by averaging of the shock intensity at which each animal manifested a behavioral response of that type to the foot shock. Visual, motor, and motivation skills were also tested with visible platform training by measuring the time and the speed to reach a visible platform placed within a pool filled with water (Gong et al., 2004). Both time to reach the platform and swimming speed were recorded and analyzed with a video tracking system (HVS-2020, HVS Image, UK). No difference was observed among different groups of mice in the experiments in which fear conditioning was tested both in the presence of LDN and TAT fusion proteins. To decide the time of administration of LDN, experiments were performed in which the inhibitor was injected intra-peritoneally at different intervals (4 hrs before, 1 hr before, 1 hr after and 4 hrs after) from the electric shock. During the training phase, no difference was found in the freezing of LDN- or vehicle-injected mice.

[1] = system: BST at the Schaffer collateral/CA1 connection of hippocampal slices; assay: Basal synaptic transmission (BST) in hippocampal slices; assay type: cell-based, mouse; conditions: for BST in WT slices (words): fusion protein 20 nM 1 hr or Aβ 200 nM 20 min, alone
phospho-CREB at Ser-133 = assay: Phospho-CREB (Ser-133) Western blot in hippocampal cultures; assay type: cell-based, rat
Procedure, shortened: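 Rat E18 hippocampal neurons cultured serum-free to 5 DIV, lysed in RIPA (pH 7.4, with phosphatase and protease inhibitors). Lysates resolved by SDS-PAGE and immunoblotted with anti-pCREB, HRP detection; band intensities quantified by densitometry and normalized to total ERK1/2.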

[2] = system: SY5Y neuroblastoma cells transfected with a degron CL1-GFP expression vector; assay: Proteasome reporter assay (GFP^u); assay type: cell-based, human; conditions: fusion protein 20 nM with Aβ
Procedure, shortened: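 SH-SY5Y neuroblastoma cells stably expressing GFP fused to CL1 degron (GFP^u) in DMEM with 15% FBS. After treatment, GFP^u levels quantified by densitometry of anti-GFP immunoblots of total extracts (10 ug/lane), normalized to ERK.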

[3] = system: CA1-LTP in hippocampal slices; assay: CA1-LTP in hippocampal slices (theta-burst); assay type: cell-based, mouse; conditions: for Aβ-induced impairment of CA1-LTP (words): fusion protein 20 nM 1 hr, then plus Aβ 200 nM 20 min; for LTP in slices not treated with Aβ (words): fusion protein 20 nM, 3 theta-burst trains
[4] = 12-18 month APP/PS1 slices, 20 nM 1 hr
[5] = listed as Uch-L1 fusion protein
[6] = listed as TAT-HA-Uch-L1 peptide
[7] = 20 nM, 1 hr, listed as TAT-Uch-L1 fusion protein

B1: TAT-HA-Uch-L1: fusion protein: 11-amino acid transduction domain of HIV-transactivator protein (TAT) fused with an HA tag and human Uch-L1 (protein)
chain: MQLKPMEINPEMLNKVLSRLGVAGQWRFVDVLGLEEESLGSVPAPACALLLLFPLTAQHENFRKKQIEELKGQEVSPKVYFMKQTIGNSCGTIGLIHAVANNQDKLGFEDGSVLKQFLSETEKMSPEDRAKCFEKNEAIQAAHDAVAQEGQCRVDDKVNFHFILFNNVDGHLYELDGRMPFPVNHGASSEDTLLKDAAKVCREFTEREQGEVRFSAVALCKAA
modifications: left off: small tags and cut ends
In the case of B1, the “contextual freezing of APP/PS1 mice 1 day after training” value (mice (WT and APP/PS1)) is reported as “failed to re-establish normal freezing; also recorded: does not improve learning the day after training”, the “contextual freezing of APP/PS1 mice 1 day after training” value (mice (WT and APP/PS1); listed as TA-HA-Uch-L1) is reported as “failed to re-establish normal freezing” and the “freezing responses of WT mice” value (mice (WT and APP/PS1); 0.02-0.04 g/kg i.p., listed as TA-HA-Uch-L1) is reported as “had no effect”. For the same molecule, the “freezing responses of WT mice” value (mice (WT and APP/PS1); 0.02-0.04 g/kg, i.p.) was “did not change the freezing time; also recorded: had no effect”, the “contextual freezing of APP/PS1 mice at 7, 14 and 21 days after training” value (mice (WT and APP/PS1); single injection 0.02-0.04 g/kg i.p. 4 hrs prior to training) was “greatly increased the freezing time; also recorded: improves the retention of contextual fear conditioning; also recorded: re-established normal freezing time” and the “BST in slices from 12-18 month-old APP/PS1 mice” value ([1]; 20 nM, 1 hr) was “also improved; also recorded: improved BST”. The BST [1, 4] was “about 94 % that of TAT-HA-treated WT mice”, the “BST in WT slices (words)” value [1] was “did not reveal any significant difference among treatments; also recorded: does not affect CA1-BST” and the “BST in WT slices (words)” value [1, 5] was “does not affect”. For the same molecule, the “effect of Aβ on glutamate-induced CREB phosphorylation (words)” value (phospho-CREB at Ser-133; fusion protein 100 nM, 3 μM Aβ 24 hrs, 50 μM glutamate 15 min) was “totally blocked the effect of Aβ on CREB phosphorylation; also recorded: re-established; also recorded: completely opposed”, the “levels of phospho-CREB” value (phospho-CREB at Ser-133; fusion protein alone, no glutamate) was “did not affect levels of phospho-CREB” and the “Aβ-induced increase of GFP^u” value [2] was “reversed”. For the same molecule, the “Aβ-induced increase of GFP^u” value [2, 6] was “blocked the increase of GFP^u”, the “LTP in slices from 4 month-old APP/PS1 mice” value ([3]; 20 nM, 1 hr) was “far greater potentiation; also recorded: elevated above vehicle treated slices; also recorded: completely reversed” and the “LTP in slices from 4 month-old WT mice” value ([3]; 20 nM, 1 hr) was “did not change the amplitude of LTP; also recorded: had no effect on LTP amplitude”. The “LTP in slices from 12-18 month-old APP/PS1 mice” value ([3]; 20 nM, 1 hr) was “greater potentiation; also recorded: had a beneficial effect; also recorded: reversed the impairment of LTP”, the “LTP in slices from 12-18 month-old WT mice” value ([3]; 20 nM, 1 hr) was “did not change the amplitude of LTP; also recorded: did not vary the amounts of potentiation; also recorded: did not affect LTP” and the “LTP in slices from 12-18 month-old APP/PS1 mice” value [3, 7] was “reverses the decrease of LTP”. For the same molecule, the “LTP in slices from 12-18 month-old WT mice” value [3, 7] was “does not affect LTP”, the “Levels of LTP at 120 minutes after tetanus” value (“Levels of LTP at 120 minutes” for short) ([3]; 4 month APP/PS1 slices, 20 nM 1 hr) was “about 94 % those of TAT-HA-treated WT littermates” and the “Levels of LTP at 120 minutes” value ([3]; 4 month WT slices, 20 nM 1 hr) was “about 98 % those of vehicle-treated WT slices”. The “levels of LTP” value [3, 4] was “about 82 % that of TAT-HA-treated WT littermates”, the “Levels of LTP at 120 minutes” value ([3]; 12-18 month WT slices, 20 nM 1 hr) was 98.5 % of those of TAT-HA-treated WT slices and the “rescue of LTP at different concentrations, S18Y versus TAT-HA-Uch-L1 (words)” value ([3]; 1 hr pre-treatment, then Aβ 200 nM 20 min, as low as 5 nM) was “No difference was detected; also recorded: no difference between the two forms”. The “LTP induced by weak tetanus” value ([3]; WT slices, 1 theta-burst train instead of 3) was “enhanced LTP; also recorded: increases LTP”, the “Aβ-induced impairment of CA1-LTP (words)” value [3] was “protected against LTP suppression; also recorded: completely reversed” and the “Aβ-induced impairment of CA1-LTP (words)” value [3, 6] was “protected against LTP suppression”. The “Aβ-induced impairment of CA1-LTP (words)” value ([3]; listed as TAT-Uch-L1 fusion protein) was “reversed; also recorded: rescued”, the “Aβ-induced impairment of CA1-LTP (words)” value [3, 5] was “reverses the deficits of LTP” and the “LTP in slices not treated with Aβ (words)” value ([3]; 1 hr, WT slices) was “did not change the amplitude of LTP; also recorded: had no effect on LTP; also recorded: did not affect the amounts of potentiation; also recorded: did not affect LTP”. For the same molecule, the “LTP in slices not treated with Aβ (words)” value ([3]; 1 hr, WT slices, listed as Uch-L1 fusion protein) was “does not affect” and the “baseline transmission in slices without tetanic stimulation” value ([3]; non-tetanized slices) was “did not modify the baseline; also recorded: had no effect on basal synaptic responses; also recorded: did not affect baseline transmission; also recorded: did not affect basal transmission; also recorded: Neither TAT-HA-Uch-L1 nor TAT-HA-iUch-L1 affected baseline transmission”.
